In paper PMC6881253 (2019):

Target: N-terminally His6-tagged human PCNA (proliferating cell nuclear antigen) (human, UniProt P12004 1-261)
Experiment: ITC

N-terminally His6-tagged human PCNA (proliferating cell nuclear antigen), sequence (P12004 whole entry): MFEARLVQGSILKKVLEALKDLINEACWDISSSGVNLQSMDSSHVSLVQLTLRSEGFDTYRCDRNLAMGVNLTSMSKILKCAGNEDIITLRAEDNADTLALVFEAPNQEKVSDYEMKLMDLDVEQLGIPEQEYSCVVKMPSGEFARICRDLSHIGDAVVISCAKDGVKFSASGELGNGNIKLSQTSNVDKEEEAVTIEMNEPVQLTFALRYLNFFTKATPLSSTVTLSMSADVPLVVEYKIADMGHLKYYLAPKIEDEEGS

Row | Binder | Kd
1 | Ac-SESSQTSMTDFYHSESSL-NH2 [D1.2, mutant variant of p21^140–157 (Ac-SESSQTSMTDFYHSESSL-NH2)] | 40 µM
2 | Ac-SESSQTSMTDFYHSKRRL-NH2 [S1, mutant variant of p21^140–157 (Ac-SESSQTSMTDFYHSKRRL-NH2)] | 8.3 µM
3 | Ac-RKRRQTSMTDFYHSESSL-NH2 [S2, mutant variant of p21^140–157 (Ac-RKRRQTSMTDFYHSESSL-NH2)] | 0.3 µM
